Data published in the nanobody polyreactivity screen of Harvey et al. (2022).

Assay: yeast display, Sf9 membrane polyspecificity reagent, FACS + sequencing; frameworks hold sequencing errors
Outline: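 Genes from sorted yeast were amplified by colony PCR, read by MiSeq 2 × 250 sequencing and filtered on CDR length. These cells carried a synthetic nanobody library in Saccharomyces cerevisiae BJ5465 and were sorted by FACS into low and high (top ~1%) gates on anti-HA and streptavidin fluorescence. Polyreactivity is labelled according to the gate of origin.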

With “QVQLVESGGGLVQAGGSLRLSCAASGSTFRFYAMGWYRQAPGKERELVAAITRSGGGTTYYADSVKGRFTISRDNAKNTVYLQMNSLKPEDTAVYYCAAYLSSLGRKYYYWGQGTQVTVSS” as the sequence, how does the “polyreactivity (PSR sort gate)” value read?
The value was “high polyreactivity”.

For “QVQLVESGGGLVQAGGSLRLSCAASGSTFRGNDMGWYRQAPGKERELVASIDWSGGSTYYADSVKGRFTISRDNAKNTVYLQMNSLKPEDTAVYYCAADTSYWYDYYIDYVGYYYWGQGTQVTVSS”, which “polyreactivity (PSR sort gate)” value is on record?
Its value is “high polyreactivity”.

Which “polyreactivity (PSR sort gate)” value does the source give for “QVQLVESGGGLVQAGGSLRLSCAASGSTFRGNTMGWYRQAPGKERELVAAISRRGGGTYYADSVKGRFTISRDNAKNTVYLQMNSLKPEDTAVYYCNKRARHTGDFVWGHGYWGQGTQVTVSS” here?
Its value is “low polyreactivity”.

For “QVQLVESGGGLVQAGGSLRLSCAASGSTFRGYAMGWYRLAPGKEREFVASISLSGGSTYYADSVKGRFTISRDNAKNTVDSQMNSRKPEDTAVYDGAARARGYGWRGDYWGQGTHVTVSS”, which “polyreactivity (PSR sort gate)” value is on record?
The value was “low polyreactivity”.

Which “polyreactivity (PSR sort gate)” value does the source give for “QVQLVESGGGLVQAGGSLRLSCAASGSTFRGYAMGWYRQAPGKERDLVAAMSSNGDRTFYADSVKGRFTISRDNAKNTVYLQMNSLKPEDTAVYYCNAVYRGSWQLYGYWGLGTQVTVSS” here?
The value was “high polyreactivity”.

Which “polyreactivity (PSR sort gate)” value does the source give for “QVQLVESGGGLVQAGGSLRLSCAASGSTFRHNAMGWYRDAPGTERELVATIRTSGGTTYYADSVKGRFTISRDNAKNTVYLQMNSLKPEDTAVYYCAAKYSLLRQYNRLDYWGQGTQVTVSS” here?
The value was “low polyreactivity”.

For “QVQLVESGGGLVQAGGSLRLSCAASGSTFRHNAMGWYRQAPGKERELVATIRTSGGTTYYADSVKGRFTISRDNAKNTVYLQMNSLKQEDTAVYYCAAVSYLFLYQGYPIAYPMYYWGQGSQVTVSS”, which “polyreactivity (PSR sort gate)” value is on record?
The value was “low polyreactivity”.

Which “polyreactivity (PSR sort gate)” value does the source give for “QVQLVESGGGLVQAGGSLRLSCAASGSTFRHYAMGWYRQAPGKESELVAAISSTGGSTHNADSVKGRFTISRDNAKNTVFLQLHSLKPEDTAVDYCAARRLYWGQGTQVTVSS” here?
The value was “high polyreactivity”.

For “QVQLVESGGGLVQAGGSLRLSCAASGSTFRINAMGWYRQAPGKERELVAAITSGGSTKYADSVKGRFTISRDNAKNTVYLQMNSLKPEDTAVYYCNKQGYPYRYFAWYPGYNYWGQGTQVTVSS”, which “polyreactivity (PSR sort gate)” value is on record?
The value was “low polyreactivity”.

Which “polyreactivity (PSR sort gate)” value does the source give for “QVQLVESGGGLVQAGGSLRLSCAASGSTFRIYAKGWYRQAPGKERELVAAITRGARTNYADSVKGRFTISRDNAKNTVYLQMNSLKPEDTAVYYCAADGWRWYQHNGFDYWVQGTQVTVSS” here?
Its value is “high polyreactivity”.

With “QVQLVESGGGLVQAGGSLRLSCAASGSTFRKYAMGWYRQAPGKEREFVAAITWSTGTTYYADSVKGRFTISRDNAKNTVYLQMNSLKPEDTAVYYCNAAFWAPQAPCYYYWGQGTQVTVSS” as the sequence, how does the “polyreactivity (PSR sort gate)” value read?
The value was “low polyreactivity”.

With “QVQLVESGGGLVQAGGSLRLSCAASGSTFRLNAMGRYRQAPGKERELVAAISRSTGTTHYADSVKGRFTISRDNAKNTVYLQMKSLKPEDTAVYYCATDRAKWHKNGDLGYWGQGTQVTVSS” as the sequence, how does the “polyreactivity (PSR sort gate)” value read?
The value was “low polyreactivity”.

For “QVQLVESGGGLVQAGGSLRLSCAASGSTFRLYAMGWYRQAPGKERELVAAIRSGGNTNYADSVKGRFTISRDNAKNTVYLQMNSLKPEDTAVYYCAATYGTGRRSKYGYWGQGTQVTVSS”, which “polyreactivity (PSR sort gate)” value is on record?
Its value is “high polyreactivity”.

Which “polyreactivity (PSR sort gate)” value does the source give for “QVQLVESGGGLVQAGGSLRLSCAASGSTFRNNAMGWYRQAPGKETELVAAISFSSGRTYYADSVKGRFTISRDYAKNTVYLQMNSLKPEDTAVYYCAALQYRRRPYGAVERYDYWGQGTQVTVSS” here?
Its value is “high polyreactivity”.

For “QVQLVESGGGLVQAGGSLRLSCAASGSTFRPNAMGWYRQAPGKERELVAAISRSGVSTYYADSVKGRFTISRDNAKNTVYLQMNSLKPEDTAVYYCARRYTGRPVLRESWGQGTQVTVSS”, which “polyreactivity (PSR sort gate)” value is on record?
The value was “low polyreactivity”.

For “QVQLVESGGGLVQAGGSLRLSCAASGSTFRPYAMGWYRQAPGTERELVAAISWSGGRTYYADSVKGRFTISRDNAKNNVYLQMNSLKPEDTAVYYCTRAGRQPKNTYDYWGQGTQVTVSS”, which “polyreactivity (PSR sort gate)” value is on record?
The value was “high polyreactivity”.

For “QVQLVESGGGLVQAGGSLRLSCAASGSTFRQNALGWYRQAPGKERELVAAITYRVASTYYADSVKGRFTISRDNAKNTVYLQMNSLKPEDTAVYYCAAYKRRSNGRYWTYDYWGQGTQVTVSS”, which “polyreactivity (PSR sort gate)” value is on record?
Its value is “high polyreactivity”.
